{"source": "paper PMC8647176", "about": "“Helical filament structure of the DREP3 CIDE domain reveals a unified mechanism of CIDE-domain assembly” (Acta Crystallographica. Section D, Structural Biology, 2021)", "target": "the molecule itself", "test": "SEC; Superdex 200 Increase 10/300 GL, 20 mM Tris-HCl pH 7.9, 500 mM NaCl; also series at 1, 5 and 15 mg ml^-1 protein and at four NaCl concentrations", "data": [{"protein": "DREP3 CIDE domain (DNA fragmentation factor-related protein 3, residues Phe112-Asp195) (domain or fragment, Drosophila melanogaster, UniProt Q0E9B7 112-195, looked up, DREP3 (DNA fragmentation factor-related protein 3), Drosophila melanogaster, UniProt Q0E9B7, CIDE domain, residues Phe112-Asp195; Cloned with NdeI and XhoI into pET-21a; The final model of PDB 7v6e holds residues 117-193; also called wild-type DREP3 CIDE domain; WT DREP3 CIDE domain; source: E. coli BL21 (DE3), purified (Ni-NTA, SEC)) FAQLDNSKPFKIKDITRNIRKAVVATTLSELRTKVSLKFERAQPAIHLDCDGTEVDDEEYFSTLEPNAELIAVFPGEQWRDPSD", "values": [{"measurement": "binding result", "value": "binds"}]}]}
